In publication doi:10.1101/2020.06.09.141986:

Target: Aldob (aldolase B) (UniProt P05062)
Test: anti-Flag co-IP, immunoblot
Settings: reference: Akt1 wild type

Substance	binding against the reference (sites S473)	binding against the reference (sites T308)
Akt1 (from UniProt P31749) Akt1-S473A	weaker	–
Akt1 (from UniProt P31749) Akt1-T308A	–	weaker
